From the supplement of paper PMC9112550, “Optimization of the antimicrobial peptide Bac7 by deep mutational scanning” (BMC Biology, 2022)

Test system: Escherichia coli TOP10
Test: shrunken log2 fold change of peptide-encoding DNA abundance (4.5 h post-induction vs induction); higher = less antimicrobial activity (less host growth inhibition)
Details: time post-induction: 4.5 h; library: site-saturation at positions 5, 18, 19, 20
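Note: peptides expressed intracellularly from a pBAD plasmid library in pooled LB shake-flask culture, induced with 0.3% L-arabinose, DNA abundance read by NGS, three biological replicates, DESeq2 with apeglm shrinkage.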

Sequence	shrunken log2 fold change
RRIRSRPPRLPRPRPRPYRDPRP	-0.128
RRIRSRPPRLPRPRPRPFCGPRP	-0.201
RRIRHRPPRLPRPRPRPCDRPRP	-0.239
RRIRTRPPRLPRPRPRPHSQPRP	-0.101
RRIRGRPPRLPRPRPRPLHVPRP	-0.0922
RRIRNRPPRLPRPRPRPNDVPRP	-0.00503
RRIRPRPPRLPRPRPRPRDLPRP	0.172
RRIRNRPPRLPRPRPRPVFDPRP	-0.152
RRIRPRPPRLPRPRPRPDNAPRP	0.0303
RRIRKRPPRLPRPRPRPNRSPRP	-0.0169
RRIRTRPPRLPRPRPRPCYLPRP	-0.468
RRIRNRPPRLPRPRPRPPYDPRP	-0.561
RRIRWRPPRLPRPRPRPPYTPRP	-0.137
RRIRGRPPRLPRPRPRPGYFPRP	3.3
RRIRNRPPRLPRPRPRPRWDPRP	0.249
RRIRDRPPRLPRPRPRPDTHPRP	0.17
RRIRLRPPRLPRPRPRPLGWPRP	0.584
RRIRTRPPRLPRPRPRPPLGPRP	0.328
RRIRQRPPRLPRPRPRPHFPPRP	-0.216
RRIRRRPPRLPRPRPRPAAIPRP	0.181
RRIRGRPPRLPRPRPRPPALPRP	0.881
RRIRDRPPRLPRPRPRPFDGPRP	-0.192
RRIRLRPPRLPRPRPRPKRHPRP	0.208
RRIRLRPPRLPRPRPRPTFNPRP	-0.289
RRIRYRPPRLPRPRPRPKDAPRP	-0.0259

Sequence	shrunken log2 fold change
RRIRNRPPRLPRPRPRPQHEPRP	-0.0581
RRIRVRPPRLPRPRPRPELGPRP	0.308
RRIRDRPPRLPRPRPRPHYYPRP	-0.236
RRIRWRPPRLPRPRPRPFCRPRP	0.0689
RRIRLRPPRLPRPRPRPQVVPRP	-0.252
RRIRMRPPRLPRPRPRPWTHPRP	-0.136
RRIRQRPPRLPRPRPRPSPIPRP	-0.0339
RRIRGRPPRLPRPRPRPVCPPRP	0.385
RRIRVRPPRLPRPRPRPYTSPRP	-0.0679
RRIRMRPPRLPRPRPRPPAKPRP	1.06
RRIRARPPRLPRPRPRPSQHPRP	-0.117
RRIRSRPPRLPRPRPRPQDLPRP	-0.0949
RRIRWRPPRLPRPRPRPFGHPRP	-0.102
RRIRFRPPRLPRPRPRPNCRPRP	0.0638
RRIRCRPPRLPRPRPRPYDTPRP	-0.308
RRIRHRPPRLPRPRPRPAPRPRP	0.749
RRIRSRPPRLPRPRPRPEKHPRP	-0.211
RRIRIRPPRLPRPRPRPYYQPRP	-0.296
RRIRCRPPRLPRPRPRPARPPRP	0.52
RRIRVRPPRLPRPRPRPYNDPRP	-0.609
RRIRGRPPRLPRPRPRPHCIPRP	-0.0261
RRIRDRPPRLPRPRPRPLPTPRP	0.358
RRIRRRPPRLPRPRPRPGWGPRP	0.497
RRIRSRPPRLPRPRPRPAQHPRP	0.0967
RRIRWRPPRLPRPRPRPHHVPRP	-0.108

Sequence	shrunken log2 fold change
RRIRVRPPRLPRPRPRPEHVPRP	0.0447
RRIRPRPPRLPRPRPRPKACPRP	0.255
RRIRDRPPRLPRPRPRPNCKPRP	0.135
RRIRARPPRLPRPRPRPFLWPRP	-0.0716
RRIRIRPPRLPRPRPRPEMDPRP	-0.277
RRIRCRPPRLPRPRPRPIEQPRP	0.0493
RRIRKRPPRLPRPRPRPTGTPRP	0.563
RRIRERPPRLPRPRPRPEPVPRP	-0.00161
RRIRNRPPRLPRPRPRPQFCPRP	-0.0424
RRIRSRPPRLPRPRPRPFHTPRP	-0.232
RRIRFRPPRLPRPRPRPGCEPRP	0.187
RRIRVRPPRLPRPRPRPADMPRP	-0.173
RRIRIRPPRLPRPRPRPVLGPRP	0.0875
RRIRGRPPRLPRPRPRPWHVPRP	-0.0733
RRIRDRPPRLPRPRPRPGWSPRP	0.104
RRIRTRPPRLPRPRPRPGMYPRP	-0.3
RRIRSRPPRLPRPRPRPQYKPRP	-0.464
RRIRDRPPRLPRPRPRPYHTPRP	-0.403
RRIRERPPRLPRPRPRPCCTPRP	-0.243
RRIRIRPPRLPRPRPRPGVQPRP	-0.00174
RRIRVRPPRLPRPRPRPTSPPRP	0.0262
RRIRQRPPRLPRPRPRPGNLPRP	0.0588
RRIRPRPPRLPRPRPRPECSPRP	-0.0845
RRIRWRPPRLPRPRPRPTIEPRP	0.145
RRIRYRPPRLPRPRPRPPLVPRP	0.174

Sequence	shrunken log2 fold change
RRIRVRPPRLPRPRPRPAEPPRP	0.218
RRIRVRPPRLPRPRPRPFTDPRP	0.0809
RRIRLRPPRLPRPRPRPSMNPRP	-0.345
RRIRHRPPRLPRPRPRPKYCPRP	-0.000924
RRIRFRPPRLPRPRPRPEILPRP	-0.0488
RRIRWRPPRLPRPRPRPPCMPRP	0.00553
RRIRRRPPRLPRPRPRPCLMPRP	0.434
RRIRERPPRLPRPRPRPSGCPRP	0.0787
RRIRTRPPRLPRPRPRPCNLPRP	-0.00247
RRIRHRPPRLPRPRPRPEIEPRP	-0.0966
RRIRGRPPRLPRPRPRPMHRPRP	0.405
RRIRVRPPRLPRPRPRPTDMPRP	-0.234
RRIRVRPPRLPRPRPRPWQMPRP	-0.00669
RRIRDRPPRLPRPRPRPSLIPRP	-0.156
RRIRPRPPRLPRPRPRPFVQPRP	-0.0832
RRIRDRPPRLPRPRPRPAPEPRP	0.225
RRIRMRPPRLPRPRPRPWFNPRP	-0.243
RRIRWRPPRLPRPRPRPEIGPRP	0.0225
RRIRSRPPRLPRPRPRPAVHPRP	0.0588
RRIRIRPPRLPRPRPRPGDNPRP	-0.317
RRIRVRPPRLPRPRPRPKLEPRP	0.09
RRIRFRPPRLPRPRPRPQGYPRP	-0.249
RRIRNRPPRLPRPRPRPHMIPRP	-0.168
RRIRRRPPRLPRPRPRPYQCPRP	0.0675
RRIRFRPPRLPRPRPRPPAKPRP	0.633

Sequence	shrunken log2 fold change
RRIRHRPPRLPRPRPRPDPLPRP	-0.106
RRIRWRPPRLPRPRPRPNICPRP	0.0504
RRIRPRPPRLPRPRPRPQDRPRP	-0.0277
RRIRMRPPRLPRPRPRPPVQPRP	0.378
RRIRFRPPRLPRPRPRPHFNPRP	-0.692
RRIRFRPPRLPRPRPRPNHIPRP	-0.937
RRIRCRPPRLPRPRPRPHKTPRP	-0.0871
RRIRSRPPRLPRPRPRPWSCPRP	0.194
RRIRDRPPRLPRPRPRPMVKPRP	0.115
RRIRLRPPRLPRPRPRPSWDPRP	-0.0231
RRIRARPPRLPRPRPRPPMKPRP	0.303
RRIRDRPPRLPRPRPRPYPAPRP	-0.15
RRIRWRPPRLPRPRPRPQFYPRP	-0.492
RRIRLRPPRLPRPRPRPQTVPRP	-0.211
RRIRLRPPRLPRPRPRPFTAPRP	-0.625
RRIRRRPPRLPRPRPRPMWFPRP	-0.0232
RRIRRRPPRLPRPRPRPLDSPRP	-0.106
RRIRPRPPRLPRPRPRPCLDPRP	-0.251
RRIRKRPPRLPRPRPRPWTRPRP	-0.0844
RRIRARPPRLPRPRPRPSPIPRP	-0.0445
RRIRKRPPRLPRPRPRPPEHPRP	0.197
RRIRHRPPRLPRPRPRPIKFPRP	-0.0972
RRIRQRPPRLPRPRPRPSWAPRP	-0.0374
RRIRMRPPRLPRPRPRPLYMPRP	-0.222
RRIRARPPRLPRPRPRPEGFPRP	0.566

Sequence	shrunken log2 fold change
RRIRIRPPRLPRPRPRPNFQPRP	-0.417
RRIRRRPPRLPRPRPRPEAHPRP	0.171
RRIRARPPRLPRPRPRPRWGPRP	0.425
RRIRDRPPRLPRPRPRPCSPPRP	0.0779
RRIRDRPPRLPRPRPRPEDFPRP	0.427
RRIRKRPPRLPRPRPRPLLIPRP	-0.11
RRIRRRPPRLPRPRPRPVFQPRP	0.00379
RRIRSRPPRLPRPRPRPSNLPRP	-0.193
RRIRIRPPRLPRPRPRPSVWPRP	-0.221
RRIRRRPPRLPRPRPRPMDCPRP	0.00462
RRIRTRPPRLPRPRPRPFSAPRP	0.0716
RRIRPRPPRLPRPRPRPWELPRP	0.0728
RRIRSRPPRLPRPRPRPMYCPRP	0.0069
RRIRQRPPRLPRPRPRPCMHPRP	-0.0431
RRIRRRPPRLPRPRPRPVWLPRP	0.175
RRIRVRPPRLPRPRPRPGMNPRP	-0.145
RRIRPRPPRLPRPRPRPDELPRP	-0.0607
RRIRIRPPRLPRPRPRPFATPRP	-0.0964
RRIRYRPPRLPRPRPRPVPSPRP	-0.404
RRIRERPPRLPRPRPRPKTFPRP	0.0567
RRIRCRPPRLPRPRPRPFPWPRP	-0.361
RRIRSRPPRLPRPRPRPLQNPRP	-0.0368
RRIRFRPPRLPRPRPRPYCWPRP	-0.652
RRIRSRPPRLPRPRPRPTIFPRP	-0.377
RRIRKRPPRLPRPRPRPPCCPRP	0.39
